The values that follow come from PMC6211762.

In the assay the target is Macrobrachium rosenbergii nodavirus (MrNV) capsid protein, recombinant, assembled into virus-like particles (Macrobrachium rosenbergii nodavirus). The assay is described as follows: cryo-EM structure; MrNV VLPs at approximately 0.2 mg/ml, vitrified on thin continuous carbon films; Titan Krios; icosahedral reconstruction at 3.3 Å from 40,883 particles; atomic model of the asymmetric unit.

A word on the stoichiometry N: it is a count of units in the complex or per binding partner.

Regarding “Macrobrachium rosenbergii nodavirus (MrNV) capsid protein, recombinant, assembled into virus-like particles (natural protein)”, the stoichiometry N amounted to 180.
